What follows are sequences tested on Escherichia coli TOP10 (assay: shrunken log2 fold change of peptide-encoding DNA abundance (4.5 h post-induction vs induction); higher = less antimicrobial activity (less host growth inhibition)). Conditions: time post-induction: 4.5 h; library: site-saturation at positions 5, 18, 19, 20.
With RRIRERPPRLPRPRPRPPHQPRP the “shrunken log2 fold change” value was -0.0506. In the case of RRIRYRPPRLPRPRPRPELDPRP, the “shrunken log2 fold change” value is reported as -0.165. RRIRSRPPRLPRPRPRPPEVPRP was tested, and the “shrunken log2 fold change” value was 0.287. RRIRSRPPRLPRPRPRPHMAPRP was tested, and the “shrunken log2 fold change” value was -0.361. In the case of RRIRYRPPRLPRPRPRPLKIPRP, the “shrunken log2 fold change” value is reported as -0.134. RRIRHRPPRLPRPRPRPRQLPRP was tested, and the “shrunken log2 fold change” value was 0.0862. For RRIRTRPPRLPRPRPRPVLKPRP, the “shrunken log2 fold change” value was 0.209. In the case of RRIRARPPRLPRPRPRPQLNPRP, the “shrunken log2 fold change” value is reported as -0.0125. RRIRVRPPRLPRPRPRPFWNPRP was tested, and the “shrunken log2 fold change” value was -0.00518. With RRIRQRPPRLPRPRPRPKPSPRP the “shrunken log2 fold change” value was 0.159. RRIRTRPPRLPRPRPRPHIIPRP was tested, and the “shrunken log2 fold change” value was -0.0938. RRIRCRPPRLPRPRPRPVLRPRP was tested, and the “shrunken log2 fold change” value was 0.183. For RRIRYRPPRLPRPRPRPFIFPRP, the “shrunken log2 fold change” value was -1.01. With RRIRMRPPRLPRPRPRPWAEPRP the “shrunken log2 fold change” value was 0.628. With RRIRFRPPRLPRPRPRPVSAPRP the “shrunken log2 fold change” value was 0.25. RRIRHRPPRLPRPRPRPQHTPRP was tested, and the “shrunken log2 fold change” value was -0.386. For RRIRNRPPRLPRPRPRPVGFPRP, the “shrunken log2 fold change” value was 0.165. In the case of RRIRLRPPRLPRPRPRPIKLPRP, the “shrunken log2 fold change” value is reported as -0.515. In the case of RRIRARPPRLPRPRPRPATEPRP, the “shrunken log2 fold change” value is reported as 0.795. With RRIRHRPPRLPRPRPRPYRNPRP the “shrunken log2 fold change” value was -0.191. In the case of RRIRYRPPRLPRPRPRPFAQPRP, the “shrunken log2 fold change” value is reported as -0.159. For RRIRMRPPRLPRPRPRPWDNPRP, the “shrunken log2 fold change” value was 0.013. RRIRRRPPRLPRPRPRPKCFPRP was tested, and the “shrunken log2 fold change” value was 0.445. For RRIRIRPPRLPRPRPRPCVAPRP, the “shrunken log2 fold change” value was -0.288. With RRIRGRPPRLPRPRPRPGKYPRP the “shrunken log2 fold change” value was -0.265. For RRIRMRPPRLPRPRPRPTCFPRP, the “shrunken log2 fold change” value was 0.105. In the case of RRIRNRPPRLPRPRPRPCCHPRP, the “shrunken log2 fold change” value is reported as -0.00931. RRIRSRPPRLPRPRPRPCCFPRP was tested, and the “shrunken log2 fold change” value was -0.0695. For RRIRHRPPRLPRPRPRPFNWPRP, the “shrunken log2 fold change” value was -0.194. In the case of RRIRRRPPRLPRPRPRPHPYPRP, the “shrunken log2 fold change” value is reported as -0.069. In the case of RRIRSRPPRLPRPRPRPMHRPRP, the “shrunken log2 fold change” value is reported as 0.0682. RRIRFRPPRLPRPRPRPACYPRP was tested, and the “shrunken log2 fold change” value was -0.066. For RRIRWRPPRLPRPRPRPDGFPRP, the “shrunken log2 fold change” value was -0.0231. With RRIRKRPPRLPRPRPRPYLPPRP the “shrunken log2 fold change” value was -0.354. With RRIRYRPPRLPRPRPRPSWEPRP the “shrunken log2 fold change” value was -0.153. In the case of RRIRARPPRLPRPRPRPDNLPRP, the “shrunken log2 fold change” value is reported as -0.0846. With RRIRTRPPRLPRPRPRPDWTPRP the “shrunken log2 fold change” value was -0.179. RRIRKRPPRLPRPRPRPTALPRP was tested, and the “shrunken log2 fold change” value was 0.213. With RRIRHRPPRLPRPRPRPYINPRP the “shrunken log2 fold change” value was -0.862. RRIRKRPPRLPRPRPRPPLCPRP was tested, and the “shrunken log2 fold change” value was 0.668. RRIRFRPPRLPRPRPRPTSMPRP was tested, and the “shrunken log2 fold change” value was -0.00284. In the case of RRIRSRPPRLPRPRPRPMMVPRP, the “shrunken log2 fold change” value is reported as -0.203. With RRIRRRPPRLPRPRPRPAYRPRP the “shrunken log2 fold change” value was 0.108. For RRIRGRPPRLPRPRPRPSAGPRP, the “shrunken log2 fold change” value was 1.09. For RRIRERPPRLPRPRPRPRFFPRP, the “shrunken log2 fold change” value was -0.00349. RRIRWRPPRLPRPRPRPAKRPRP was tested, and the “shrunken log2 fold change” value was -0.0468. For RRIRYRPPRLPRPRPRPWPGPRP, the “shrunken log2 fold change” value was -0.15. In the case of RRIRWRPPRLPRPRPRPFTWPRP, the “shrunken log2 fold change” value is reported as -0.119. In the case of RRIRRRPPRLPRPRPRPSVVPRP, the “shrunken log2 fold change” value is reported as 0.15. For RRIRHRPPRLPRPRPRPCGRPRP, the “shrunken log2 fold change” value was -0.0197. With RRIRIRPPRLPRPRPRPQNMPRP the “shrunken log2 fold change” value was -0.235. RRIRSRPPRLPRPRPRPPAFPRP was tested, and the “shrunken log2 fold change” value was -0.00342. RRIRQRPPRLPRPRPRPIESPRP was tested, and the “shrunken log2 fold change” value was -0.181. For RRIRRRPPRLPRPRPRPRQVPRP, the “shrunken log2 fold change” value was 0.466. In the case of RRIRYRPPRLPRPRPRPAQDPRP, the “shrunken log2 fold change” value is reported as 0.188. RRIRLRPPRLPRPRPRPDKMPRP was tested, and the “shrunken log2 fold change” value was -0.121. With RRIRNRPPRLPRPRPRPDNMPRP the “shrunken log2 fold change” value was -0.104. RRIRHRPPRLPRPRPRPINRPRP was tested, and the “shrunken log2 fold change” value was 0.0787. For RRIRSRPPRLPRPRPRPNYTPRP, the “shrunken log2 fold change” value was -0.479. With RRIRGRPPRLPRPRPRPDRHPRP the “shrunken log2 fold change” value was 0.191. For RRIRMRPPRLPRPRPRPPDFPRP, the “shrunken log2 fold change” value was 0.549. For RRIRHRPPRLPRPRPRPVAFPRP, the “shrunken log2 fold change” value was -0.187. For RRIRKRPPRLPRPRPRPSLWPRP, the “shrunken log2 fold change” value was 0.187. RRIRQRPPRLPRPRPRPPYQPRP was tested, and the “shrunken log2 fold change” value was -0.216. For RRIRLRPPRLPRPRPRPTAIPRP, the “shrunken log2 fold change” value was -0.17. RRIRSRPPRLPRPRPRPIQWPRP was tested, and the “shrunken log2 fold change” value was 0.268. For RRIRCRPPRLPRPRPRPGHGPRP, the “shrunken log2 fold change” value was -0.0435. For RRIRCRPPRLPRPRPRPYWKPRP, the “shrunken log2 fold change” value was -0.737. RRIRIRPPRLPRPRPRPAWAPRP was tested, and the “shrunken log2 fold change” value was 0.243. RRIRMRPPRLPRPRPRPFWFPRP was tested, and the “shrunken log2 fold change” value was 0.132. With RRIRKRPPRLPRPRPRPNYHPRP the “shrunken log2 fold change” value was -0.331. In the case of RRIRNRPPRLPRPRPRPRDEPRP, the “shrunken log2 fold change” value is reported as -0.0923. For RRIRWRPPRLPRPRPRPPCRPRP, the “shrunken log2 fold change” value was -0.0876. For RRIRERPPRLPRPRPRPNHYPRP, the “shrunken log2 fold change” value was -1.57. For RRIRIRPPRLPRPRPRPWENPRP, the “shrunken log2 fold change” value was -0.00674.
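Also: peptides expressed intracellularly from a pBAD plasmid library in pooled LB shake-flask culture, induced with 0.3% L-arabinose, DNA abundance read by NGS, three biological replicates, DESeq2 with apeglm shrinkage.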
